Data taken from patent US20110223630A1, “METHOD FOR SCREENING FOR COMPOUNDS THAT INHIBIT NEURODEGENERATION” (priority 2008, published 2011).

Legend:
Assay in all cases: Cell-based AP binding assay on transfected COS-1 cells
p75NTR = molecular target: T1, p75NTR (Homo sapiens, UniProt P08138); conditions: same conditions as APP
T1 construct: expressed in transfected cells; host or cells: COS-1
T1 sequence (P08138 29-427): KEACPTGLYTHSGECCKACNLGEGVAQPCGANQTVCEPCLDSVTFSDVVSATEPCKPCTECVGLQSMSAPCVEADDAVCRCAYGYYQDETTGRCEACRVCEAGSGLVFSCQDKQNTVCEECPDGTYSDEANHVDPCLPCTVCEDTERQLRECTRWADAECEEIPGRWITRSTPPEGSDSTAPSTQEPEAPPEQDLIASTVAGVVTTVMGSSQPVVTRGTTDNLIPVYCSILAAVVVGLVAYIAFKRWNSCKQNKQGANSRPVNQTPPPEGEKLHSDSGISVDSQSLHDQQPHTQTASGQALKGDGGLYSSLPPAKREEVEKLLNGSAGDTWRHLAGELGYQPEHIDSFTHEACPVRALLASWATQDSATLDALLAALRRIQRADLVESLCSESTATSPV
Protocol: (§1) The materials and methods used to generate the data shown in this figure are as follows. To test whether APP directly interacts with DR6 extracellular domain, a cell-based A binding assay was carried out (FIG. 14B). To generate DR6 ectodomain-A fusion protein (DR6-AP), COS-1 cells cultured in DMEM/10% FBS (Gibco) medium were transfected with 15 microgram of DR6-AP fusion expression construct using FuGene transfection reagent (Roche) according to the manufacturer protocol. Twelve hours post-transfection, COS-1 cell medium was changed to OPTI-MEM (Invitrogen). Forty-eight hours post-transfection, COS-1 cell conditioned medium containing DR6-AP proteins was collected and filtered. The amount of DR6-AP proteins in the medium was quantified according to the following procedure. 100 microliters of 2×AP buffer (prepared by adding 100 mg Para-nitrophenyl phosphate (Sigma) and 15 microliter of 1M MgCl2 to 15 ml 2M diethanolamine pH 9.8) was mixed with equal volume of transfected COS cell conditioned medium or control conditioned medium from untransfected COS-1 cells. The color of the reaction was developed over 12-15 minutes, with the O.D. being in the linear range (0.1-1). The volume of reaction was then adjusted by adding 800 microliters of distilled water and the O.D. was measured at 405 nm absorbance wavelength. The concentration in nM was calculated according to the formula (for 100 microliter): C (nM)=O.D.×100×(60/developing time)/30. For the APP AP binding assay, COS-1 cells cultured in DMEM/10% FBS (Gibco) medium in 6-well culture dishes were transfected with 2 microgram of APP expressing vector per well using FuGene transfection reagent (Roche) according to the manufacturer protocol. Two days post-transfection, cells were washed twice with the binding buffer (HBSS, Gibco Cat. No. 14175-095, with 0.2% BSA, 0.1% NaN3, 5 mM CaCl2, 1 mM MgCl2, 20 mM HEPES, pH=7.0). […]

APP = molecular target: T2, APP (Homo sapiens, UniProt P05067); conditions: DR6-AP conditioned medium 1:1 with binding buffer, 90 minutes
T2 construct: expressed in transfected cells; host or cells: COS-1
T2 sequence (P05067 18-770): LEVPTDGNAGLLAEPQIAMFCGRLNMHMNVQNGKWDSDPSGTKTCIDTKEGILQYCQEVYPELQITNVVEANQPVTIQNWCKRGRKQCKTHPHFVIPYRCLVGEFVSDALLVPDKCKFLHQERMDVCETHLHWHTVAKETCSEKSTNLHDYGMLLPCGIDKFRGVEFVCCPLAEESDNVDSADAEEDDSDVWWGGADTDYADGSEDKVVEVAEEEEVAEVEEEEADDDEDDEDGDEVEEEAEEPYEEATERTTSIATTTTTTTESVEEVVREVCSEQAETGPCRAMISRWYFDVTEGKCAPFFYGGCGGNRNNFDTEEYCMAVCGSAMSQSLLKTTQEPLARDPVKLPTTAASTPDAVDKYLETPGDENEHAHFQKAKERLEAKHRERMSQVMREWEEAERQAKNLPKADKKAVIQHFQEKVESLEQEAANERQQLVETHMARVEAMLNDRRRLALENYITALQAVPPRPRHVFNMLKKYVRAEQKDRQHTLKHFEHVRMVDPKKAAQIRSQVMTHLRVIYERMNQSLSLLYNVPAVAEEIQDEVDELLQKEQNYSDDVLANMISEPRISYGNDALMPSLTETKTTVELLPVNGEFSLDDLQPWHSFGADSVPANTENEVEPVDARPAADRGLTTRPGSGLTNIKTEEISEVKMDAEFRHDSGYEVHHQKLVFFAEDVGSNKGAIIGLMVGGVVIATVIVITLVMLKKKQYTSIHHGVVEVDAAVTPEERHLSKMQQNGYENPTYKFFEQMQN
Protocol: as §1

DR6 receptor = molecular target: T3, DR6 receptor (Homo sapiens, UniProt O75509); conditions: same conditions as APP
T3 construct: expressed in transfected cells; host or cells: COS-1
T3 sequence (O75509 42-655): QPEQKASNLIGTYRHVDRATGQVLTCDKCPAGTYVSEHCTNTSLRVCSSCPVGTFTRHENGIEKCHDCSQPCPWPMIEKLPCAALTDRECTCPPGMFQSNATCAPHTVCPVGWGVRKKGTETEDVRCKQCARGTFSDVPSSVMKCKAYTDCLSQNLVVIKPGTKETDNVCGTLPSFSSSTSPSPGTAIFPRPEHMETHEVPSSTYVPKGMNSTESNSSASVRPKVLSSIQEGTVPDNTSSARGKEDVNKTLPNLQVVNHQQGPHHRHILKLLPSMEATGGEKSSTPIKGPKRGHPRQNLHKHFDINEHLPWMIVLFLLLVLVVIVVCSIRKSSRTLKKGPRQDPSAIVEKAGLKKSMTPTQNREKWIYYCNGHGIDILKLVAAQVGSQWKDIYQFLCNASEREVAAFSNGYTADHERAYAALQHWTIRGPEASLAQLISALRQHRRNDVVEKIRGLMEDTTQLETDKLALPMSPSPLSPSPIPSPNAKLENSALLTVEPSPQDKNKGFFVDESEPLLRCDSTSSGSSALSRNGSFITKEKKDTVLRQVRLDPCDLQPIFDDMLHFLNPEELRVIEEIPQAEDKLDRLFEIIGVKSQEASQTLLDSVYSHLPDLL
Protocol: as §1

B1: DR6-AP: mouse DR6 ectodomain fused to human placental alkaline phosphatase (protein)
chain: QPEQKTLSLPGTYRHVDRTTGQVLTCDKCPAGTYVSEHCTNMSLRVCSSCPAGTFTRHENGIERCHDCSQPCPWPMIERLPCAALTDRECICPPGMYQSNGTCAPHTVCPVGWGVRKKGTENEDVRCKQCARGTFSDVPSSVMKCKAHTDCLGQNLEVVKPGTKETDNVCGMRLFFSSTNPPSSGTVTFSHPEHMESHDVPSSTYEPQGMNSTDSNSTASVRTKVPSGIEEGTVPDNTSSTSGKEGTNRTLPNPPQVTHQQAPHHRHILKLLPSSMEATGEKSSTAIKAPKRGHPRQNAHKHFDINEH
modifications: left off: large carriers
notes: mouse DR6 ectodomain fused to human placental alkaline phosphatase
binding of DR6 ectodomain-AP to p75NTR expressing cells (p75NTR): does NOT bind
binding of DR6 ectodomain-AP to APP expressing COS cells (APP): binds APP expressed by cultured cells
binding of DR6 ectodomain-AP to DR6 receptor expressing cells (DR6 receptor): does NOT bind
